These results are taken from IntAct's records for PubMed 19013460.

The chains are these.
B1: Thiamine metabolism regulatory protein THI3 (Saccharomyces cerevisiae), Q07471 (parent)
chain: MNSSYTQRYALPKCIAISDYLFHRLNQLNIHTIFGLSGEFSMPLLDKLYNIPNLRWAGNSNELNAAYAADGYSRLKGLGCLITTFGVGELSAINGVAGSYAEHVGILHIVGMPPTSAQTKQLLLHHTLGNGDFTVFHRIASDVACYTTLIIDSELCADEVDKCIKKAWIEQRPVYMGMPVNQVNLPIESARLNTPLDLQLHKNDPDVEKEVISRILSFIYKSQNPAIIVDACTSRQNLIEETKELCNRLKFPVFVTPMGKGTVNETDPQFGGVFTGSISAPEVREVVDFADFIIVIGCMLSEFSTSTFHFQYKTKNCALLYSTSVKLKNATYPDLSIKLLLQKILANLDESKLSYQPSEQPSMMVPRPYPAGNVLLRQEWVWNEISHWFQPGDIIITETGASAFGVNQTRFPVNTLGISQALWGSVGYTMGACLGAEFAVQEINKDKFPATKHRVILFMGDGAFQLTVQELSTIVKWGLTPYIFVMNNQGYSVDRFLHHRSDASYYDIQPWNYLGLLRVFGCTNYETKKIITVGEFRSMISDPNFATNDKIRMIEIMLPPRDVPQALLDRWVVEKEQSKQVQEENENSSAVNTPTPEFQPLLKKNQVGY
partner: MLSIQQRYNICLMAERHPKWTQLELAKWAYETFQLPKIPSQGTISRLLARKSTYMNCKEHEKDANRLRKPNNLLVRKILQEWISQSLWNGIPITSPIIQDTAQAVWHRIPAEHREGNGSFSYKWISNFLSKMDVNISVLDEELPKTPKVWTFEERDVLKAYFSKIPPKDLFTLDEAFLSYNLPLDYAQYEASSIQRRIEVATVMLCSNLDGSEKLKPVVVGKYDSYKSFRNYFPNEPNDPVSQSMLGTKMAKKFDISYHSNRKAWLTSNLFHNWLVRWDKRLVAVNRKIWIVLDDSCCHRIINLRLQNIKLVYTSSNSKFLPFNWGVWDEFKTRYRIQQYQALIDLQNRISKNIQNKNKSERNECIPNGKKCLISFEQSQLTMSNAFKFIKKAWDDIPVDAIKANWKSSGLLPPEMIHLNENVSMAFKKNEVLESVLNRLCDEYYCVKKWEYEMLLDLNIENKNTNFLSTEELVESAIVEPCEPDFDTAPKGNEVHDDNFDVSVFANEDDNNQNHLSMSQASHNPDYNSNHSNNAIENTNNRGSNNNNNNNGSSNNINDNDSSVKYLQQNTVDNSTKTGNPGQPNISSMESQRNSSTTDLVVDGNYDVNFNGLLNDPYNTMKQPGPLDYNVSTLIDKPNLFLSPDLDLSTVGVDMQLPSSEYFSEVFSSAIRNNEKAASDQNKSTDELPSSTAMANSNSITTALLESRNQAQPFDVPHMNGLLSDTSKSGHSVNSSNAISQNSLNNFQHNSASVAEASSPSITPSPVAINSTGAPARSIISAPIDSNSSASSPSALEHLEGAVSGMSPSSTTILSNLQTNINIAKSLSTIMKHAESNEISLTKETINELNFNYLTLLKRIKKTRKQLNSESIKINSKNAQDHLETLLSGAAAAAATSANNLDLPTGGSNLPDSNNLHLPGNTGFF

In the assay the parent is B1. The note with it: with pdc2_yeast PDC2, P32896.
Turning to N488D, the “effect of a mutation on the interaction” value is listed as “increasing interaction”.
